One block for each binder: values may come before it.
Columns and labels:
CD302 = biological target: T1, CD302 (human, UniProt Q8IX05 23-168, limits assumed); experiment: ELISA, plate-coated recombinant human protein, nanobody-Fc
T1 construct: Recombinant human protein in ELISA
T1 sequence (looked up): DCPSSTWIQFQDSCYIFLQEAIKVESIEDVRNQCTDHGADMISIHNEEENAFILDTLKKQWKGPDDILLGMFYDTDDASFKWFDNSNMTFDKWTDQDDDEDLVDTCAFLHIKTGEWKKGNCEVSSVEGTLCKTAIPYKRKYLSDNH
Experimental: (§1) Recombinant human protein was diluted in PBS to a final concentration of 5 μg/mL and was immobilized on 96-well flat bottom MaxiSorp plates (Thermo Fisher Scientific) and placed at 4° C. overnight. Plates were washed three times with 225 μL ELISA wash buffer (PBS with 0.05% Tween 20) and 200 μL ELISA blocking buffer (PBS with 1% Casein) was added to the well. Plates were incubated with shaking for 2 hours at room temperature. ELISA blocking buffer was removed from the wells and appropriate dilutions of recombinant nanobodies in 100 μL ELISA blocking buffer was added to each well. Plates were incubated with shaking for 2 hours at room temperature. Plates were washed 3 times with 225 μL ELISA wash buffer and 1:5000 goat anti-human IgG HRP (Millipore Sigma) in 100 μL ELISA blocking buffer was added to the wells. Plates were incubated with shaking for 1 hour at room temperature. Plates were washed 6 times with 225 μL ELISA wash buffer. 50 μL TMB substrate (BD Biosciences) was added to the wells and plates were incubated for 15 minutes in the dark at room temperature. 50 μL 1 M sulfuric acid was added to the wells and absorbance at 450 nm was measured in a Synergy HTX Multi-Mode Microplate Reader (BioTek).

REAP Off-Targets = experiment: REAP, nanobody-Fc on yeast-displayed human antigen library
[1] = biological target: T2, TNFRSF17 (recombinant human protein) (human, UniProt Q02223 1-54); experiment: ELISA, recombinant human protein coated, nanobody-Fc titrated, anti-human IgG HRP
T2 construct: Recombinant human protein immobilized at 5 ug/mL for ELISA
T2 sequence (looked up): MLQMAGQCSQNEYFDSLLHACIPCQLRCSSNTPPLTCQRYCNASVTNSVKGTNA
Experimental: as §1

PROCR = biological target: T3, PROCR (human, UniProt Q9UNN8 18-210); experiment: ELISA, plate-coated recombinant human protein, nanobody-Fc
T3 construct: Recombinant human protein in ELISA and BLI
T3 sequence (looked up): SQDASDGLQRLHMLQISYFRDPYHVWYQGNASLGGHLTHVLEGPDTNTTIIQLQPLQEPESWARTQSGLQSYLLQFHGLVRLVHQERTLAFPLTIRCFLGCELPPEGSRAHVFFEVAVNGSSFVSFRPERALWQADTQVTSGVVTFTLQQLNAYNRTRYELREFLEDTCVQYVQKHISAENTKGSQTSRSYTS
Experimental: as §1

[2] = biological target: T4, TNFSF18 (recombinant human protein) (human, UniProt Q9UNG2 52-177, limits assumed); experiment: ELISA, recombinant human protein coated, nanobody-Fc titrated, anti-human IgG HRP
T4 construct: Recombinant human protein immobilized at 5 ug/mL for ELISA
T4 sequence (looked up): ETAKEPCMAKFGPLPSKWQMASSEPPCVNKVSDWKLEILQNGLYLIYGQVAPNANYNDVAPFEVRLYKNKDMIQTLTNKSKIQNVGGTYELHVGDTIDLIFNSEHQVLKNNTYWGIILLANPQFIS
Experimental: as §1

CD3E = biological target: T5, CD3E (human, UniProt P07766 23-126); experiment: ELISA, plate-coated recombinant human protein, nanobody-Fc
T5 construct: Recombinant human protein in ELISA
T5 sequence (P07766 23-126 limits assumed): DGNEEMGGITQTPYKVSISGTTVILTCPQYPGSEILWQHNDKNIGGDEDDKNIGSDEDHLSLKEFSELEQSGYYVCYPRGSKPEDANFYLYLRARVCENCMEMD
Experimental: as §1

B1: CD302_Nb30 (Fc fusion)
chain: QVQLQESGGGLVQAGGSLRLSCAASGSISLATGMGWYRQAPGKEREFVAGISVGTSTYYADSVKGRFTISRDNAKNTVYLQMNSLKPEDTAVYYCAAIAWHPSGARSYLRYWGQGTQVTVSS
notes: Nanobody expressed and tested as Fc fusion (human IgG1); not shown: human IgG1 Fc (vector pCER243)
EC50 (CD302): 2.21 nM

B3: PROCR_Nb85 (Fc fusion)
chain: QVQLQESGGGLVQAGGSLRLSCAASGNISVLVYMGWYRQAPGKERELVAAITTGTSTYYADSVKGRFTISRDNAKNTVYLQMNSLKPEDTAVYYCAADYYGPWYHQYWGQGTQVTVSS
notes: as for B1
EC50 (PROCR): 0.352 nM

B6: TNFSF18_Nb101 (Fc fusion)
chain: QVQLQESGGGLVQAGGSLRLSCAASGYIFDDYGMGWYRQAPGKERELVATINAGANTNYADSVKGRFTISRDNAKNTVYLQMNSLKPEDTAVYYCAVYYGPYYRYLDPYLYWGQGTQVTVSS
notes: Nanobody expressed as an Fc fusion protein (fused with human IgG1) in Expi293 cells; not shown: human IgG1 Fc; nanobodies expressed as Fc fusion from vector pCER243
EC50 [2]: 22.6 nM

B10: TNFRSF17_Nb2.20 (Fc fusion)
chain: QVQLQESGGGLVQAGGSLRLSCAASGTIFSDYMGWYRQAPGKEREFVATIAVGSITYYADSVKGRFTISRDNAKNTVYLQMNSLKPEDTAVYYCAVWDASWADYAYWGQGTQVTVSS
notes: as for B6
EC50 [1]: 1.02 nM

B14: CD3E_Nb2.80 (Fc fusion)
chain: QVQLQESGGGLVQAGGSLRLSCAASGNISRRYVMGWYRQAPGKEREFVAGISGGSSTYYADSVKGRFTISRDNAKNTVYLQMNSLKPEDTAVYYCAVLISGNTPNAISHYYWGQGTQVTVSS
notes: as for B1
EC50 (CD3E): 17.9 nM

B15: CD3E_Nb2.76 (Fc fusion)
chain: QVQLQESGGGLVQAGGSLRLSCAASGNIFGNVVMGWYRQAPGKEREFVAGINNGGSTNYADSVKGRFTISRDNAKNTVYLQMNSLKPEDTAVYYCAVYYYYLTYHLYWGQGTQVTVSS
notes: as for B1
EC50 (CD3E): 16.1 nM

B16: CD302_Nb32 (Fc fusion)
chain: QVQLQESGGGLVQAGGSLRLSCAASGTIFPDSSMGWYRQAPGKEREFVAGITTGANTYYADSVKGRFTISRDNAKNTVYLQMNSLKPEDTAVYYCAAYHVDRAVFRYWGQGTQVTVSS
notes: as for B1
EC50 (CD302): 0.49 nM

B21: PROCR_Nb83 (Fc fusion)
chain: QVQLQESGGGLVQAGGSLRLSCAASGNISPTRFMGWYRQAPGKEREFVAAIDLGTTTNYADSVKGRFTISRDNAKNTVYLQMNSLKPEDTAVYYCAADWNGPWSFWYWGQGTQVTVSS
notes: as for B1
EC50 (PROCR): 1.27 nM

B22: CD3E_Nb2.74 (Fc fusion)
chain: QVQLQESGGGLVQAGGSLRLSCAASGTIFYASVMGWYRQAPGKEREFVAGITPGGSTNYADSVKGRFTISRDNAKNTVYLQMNSLKPEDTAVYYCAVYYRYSEGRIGGHAYWGQGTQVTVSS
notes: as for B1
EC50 (CD3E): 1.2 nM

B23: TNFRSF17_Nb2.23 (Fc fusion)
chain: QVQLQESGGGLVQAGGSLRLSCAASGYISRYDYMGWYRQAPGKERELVAAINSGASTYYADSVKGRFTISRDNAKNTVYLQMNSLKPEDTAVYYCAVRSWGLDDYAYWGQGTQVTVSS
notes: as for B6
REAP Off-Targets (number) (REAP Off-Targets): 2 off-targets | EC50 [1]: 7.57 nM

Further lines, results first:

REAP Off-Targets (number) (REAP Off-Targets): 3 off-targets | EC50 [1]: 2.84 nM
B2: TNFRSF17_Nb2.19 (Fc fusion)
chain: QVQLQESGGGLVQAGGSLRLSCAASGTISHPTYMGWYRQAPGKEREFVAGISDGTNTYYADSVKGRFTISRDNAKNTVYLQMNSLKPEDTAVYYCAAITSWDYGYGYWGQGTQVTVSS
notes: as for B6

REAP Off-Targets (number) (REAP Off-Targets): 5 off-targets | EC50 [1]: 4.75 nM
B4: TNFRSF17_Nb2.21 (Fc fusion)
chain: QVQLQESGGGLVQAGGSLRLSCAASGTIFQYDYMGWYRQAPGKEREFVAAIAYGGNTNYADSVKGRFTISRDNAKNTVYLQMNSLKPEDTAVYYCAAWSWRRSRAYWGQGTQVTVSS
notes: as for B6

EC50 (PROCR): 0.565 nM
B5: PROCR_Nb89 (Fc fusion)
chain: QVQLQESGGGLVQAGGSLRLSCAASGTIFRDDNMGWYRQAPGKEREFVAAIGYGSTTNYADSVKGRFTISRDNAKNTVYLQMNSLKPEDTAVYYCAVRNTYWNLLQYWGQGTQVTVSS
notes: as for B1

EC50 (CD3E): 0.67 nM
B7: CD3E_Nb2.77 (Fc fusion)
chain: QVQLQESGGGLVQAGGSLRLSCAASGSISPVAVMGWYRQAPGKEREFVAAINYGANTYYADSVKGRFTISRDNAKNTVYLQMNSLKPEDTAVYYCAAATYAPYQRSGKLVYWGQGTQVTVSS
notes: as for B1

EC50 (CD302): 8.5 nM
B8: CD302_Nb26 (Fc fusion)
chain: QVQLQESGGGLVQAGGSLRLSCAASGNISFIGAMGWYRQAPGKEREFVAGINVGTNTYYADSVKGRFTISRDNAKNTVYLQMNSLKPEDTAVYYCAAYVFVSRIDLRYLVYWGQGTQVTVSS
notes: as for B1

EC50 [2]: 1.59 nM
B9: TNFSF18_Nb93 (Fc fusion)
chain: QVQLQESGGGLVQAGGSLRLSCAASGNISDPPFMGWYRQAPGKERELVAGISWGASTYYADSVKGRFTISRDNAKNTVYLQMNSLKPEDTAVYYCAAVTTDFGAYPFAYWGQGTQVTVSS
notes: as for B6

EC50 (CD3E): 0.579 nM
B11: CD3E_Nb2.79 (Fc fusion)
chain: QVQLQESGGGLVQAGGSLRLSCAASGTISPWRVMGWYRQAPGKEREFVAGITPGTTTYYADSVKGRFTISRDNAKNTVYLQMNSLKPEDTAVYYCAVSAGASTPARYRLVYWGQGTQVTVSS
notes: as for B1

EC50 (CD302): 0.654 nM
B12: CD302_Nb35 (Fc fusion)
chain: QVQLQESGGGLVQAGGSLRLSCAASGTISRVFVMGWYRQAPGKERELVAGIGGGTSTYYADSVKGRFTISRDNAKNTVYLQMNSLKPEDTAVYYCAAILSDRVLFRYWGQGTQVTVSS
notes: as for B1

EC50 (CD302): 1.26 nM
B13: CD302_Nb31 (Fc fusion)
chain: QVQLQESGGGLVQAGGSLRLSCAASGTIFKSAGMGWYRQAPGKEREFVAGIAPGAITYYADSVKGRFTISRDNAKNTVYLQMNSLKPEDTAVYYCAALVADGRPYRYWGQGTQVTVSS
notes: as for B1

EC50 (CD302): 0.684 nM
B17: CD302_Nb28 (Fc fusion)
chain: QVQLQESGGGLVQAGGSLRLSCAASGSISGVSGMGWYRQAPGKEREFVAGITTGTSTYYADSVKGRFTISRDNAKNTVYLQMNSLKPEDTAVYYCAAYANYVPSSRLYLRYWGQGTQVTVSS
notes: as for B1

EC50 (PROCR): 1.74 nM
B18: PROCR_Nb90 (Fc fusion)
chain: QVQLQESGGGLVQAGGSLRLSCAASGTISGGYNMGWYRQAPGKEREFVATIGDGSSTYYADSVKGRFTISRDNAKNTVYLQMNSLKPEDTAVYYCAAFNSAQYWYESPFRYWGQGTQVTVSS
notes: as for B1

REAP Off-Targets (number) (REAP Off-Targets): 1 off-targets | EC50 [1]: 2.82 nM
B19: TNFRSF17_Nb2.18 (Fc fusion)
chain: QVQLQESGGGLVQAGGSLRLSCAASGNIFRGWYMGWYRQAPGKEREFVATIASGGSTYYADSVKGRFTISRDNAKNTVYLQMNSLKPEDTAVYYCAVWDWEPGDYAYWGQGTQVTVSS
notes: as for B6

EC50 (CD3E): 0.735 nM
B20: CD3E_Nb2.73 (Fc fusion)
chain: QVQLQESGGGLVQAGGSLRLSCAASGNISDITVMGWYRQAPGKEREFVAGINYGGSTNYADSVKGRFTISRDNAKNTVYLQMNSLKPEDTAVYYCAARYRYRYSAREFHDYWGQGTQVTVSS
notes: as for B1

EC50 (CD302): 2.26 nM
B24: CD302_Nb33 (Fc fusion)
chain: QVQLQESGGGLVQAGGSLRLSCAASGTISIIFAMGWYRQAPGKEREFVAGIGRGTTTYYADSVKGRFTISRDNAKNTVYLQMNSLKPEDTAVYYCAAHVFYDNVVQRHAYWGQGTQVTVSS
notes: as for B1

Reference: patent US20230416942A1 (YALE UNIVERSITY, published 2023)
